Consider one molecule from PMC2199314 (The Journal of Cell Biology, 2001).

The test has as its target taxol-stabilized bovine brain microtubules (bovine, UniProt Q6B856 1-445).

B1: Escherichia coli–purified Dam1p (natural protein, S. cerevisiae, UniProt P53267 1-343, looked up)
chain: MSEDKAKLGTTRSATEYRLSIGSAPTSRRSSMGESSSLMKFADQEGLTSSVGEYNENTIQQLLLPKIRELSDSIITLDSNFTRLNFIHESLADLNESLGSLLYGIMSNSWCVEFSQAPHDIQDDLIAIKQLKSLEDEKNNLVMELSNMERGIKRKKDEQGENDLAKASQNKQFNQPLFPSSQVRKYRSYDNRDKRKPSKIGNNLQVENEEDYEDDTSSEASFVLNPTNIGMSKSSQGHVTKTTRLNNNTNSKLRRKSILHTIRNSIASGADLPIENDNVVNLGDLHPNNRISLGSGAARVVNGPVTKNRNSMFSGRAERKPTESRHSVAKKTEKKINTRPPFR
In general, Kd refers to the free concentration of one partner at which half of the binding sites on the other are occupied at equilibrium, for simple one-to-one binding. A high value points to lower affinity. In the case of B1, the Kd was ~500 nM.
